Results on one substance are retold here after article PMC6650244.

Assay [1] concerns the target BRD4 (bromodomain-containing protein 4) (UniProt Q9ESU6). In words: co-immunoprecipitation (IP: BMAL1) with immunoblot, chemiluminescence band intensity. As to conditions: nuclear extracts, synchronized fibroblasts 24 hr after Dex, scale: relative band intensity.
The target in assay [2] is CDK9 (cyclin-dependent kinase 9) (UniProt Q99J95). Described as above. The settings on record: nuclear extracts, synchronized fibroblasts 24 hr after Dex, scale: relative band intensity.
Setting [3] is: highest amount of IP (two-fold dilution series, lane 3 of 3).
[4] abbreviates: lowest amount of IP (two-fold dilution series, lane 1 of 3).
Where [5] appears, read: middle amount of IP (two-fold dilution series, lane 2 of 3).

Regarding “BMAL1 (brain and muscle ARNT-like protein 1) K538R”, the response in assay [1] (setting [3]) was determined as 0.1; in assay [1] (setting [4]), 0.02; in assay [1] (setting [5]) it was 0.06; in assay [2] (setting [3]) it was 0.07; in assay [2] (setting [4]) it was 0.01; in assay [2] (setting [5]), 0.03.
